{
  "source": "patent US8937048B2",
  "about": "“Anti-angiogenic compounds” (Covx Technologies Ireland, Limited, priority 2008, dated 2015)",
  "key": {"[1]": {"test": "Mouse half-life (T 1/2) and screening half-life of Ang2 binding compounds", "format": "in vivo, Swiss Webster mice", "details": "for half-life: mouse, in vivo, read-out: T ½ (Sc) hours, screening half life", "description": "For “screening” T ½, test compounds were intravenously administered into male Swiss Webster mice. Blood samples were taken from 4 mice per time point via retroorbital sinus bleed at the following time points: 0.08, 5, and 32 hours. Blood level of test compounds were determined by ELISA. The data were reported as the percentage of test compounds at 32 hours versus 5 min. Normal T ½ was calculated in a similar fashion, after undergoing additional data analysis using WinNonlin version 4.1 (Pharsight Corporation). The data was fit to a model based upon the shape of the curve (i.e. a bi-exponential decline will be fit to a two compartment model, etc.) The criteria for best fit (i.e. lowest % CV) was based on iterative re-weighted least squares."}, "[2]": {"target": "T1, human angiopoietin-2 protein (Homo sapiens, UniProt O15123)", "T1 construct": "purchased R&D Systems", "T1 sequence (O15123 19-496)": "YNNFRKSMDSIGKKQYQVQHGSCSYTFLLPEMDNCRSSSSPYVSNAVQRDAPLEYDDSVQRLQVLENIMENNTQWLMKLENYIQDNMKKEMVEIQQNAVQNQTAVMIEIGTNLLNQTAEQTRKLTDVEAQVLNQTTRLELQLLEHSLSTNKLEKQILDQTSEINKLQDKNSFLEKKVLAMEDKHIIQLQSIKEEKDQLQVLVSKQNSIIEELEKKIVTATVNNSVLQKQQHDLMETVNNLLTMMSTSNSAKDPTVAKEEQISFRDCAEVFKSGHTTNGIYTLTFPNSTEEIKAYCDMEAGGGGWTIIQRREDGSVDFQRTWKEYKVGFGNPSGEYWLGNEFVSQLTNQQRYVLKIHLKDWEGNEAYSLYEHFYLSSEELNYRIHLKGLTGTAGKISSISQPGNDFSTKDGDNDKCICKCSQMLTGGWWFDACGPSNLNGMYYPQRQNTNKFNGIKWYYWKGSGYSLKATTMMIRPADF", "test": "Ang2 competitive ELISA (Ang-2 coated, Tie-2-Fc competition)", "format": "binding", "description": "The ability of Ang2 binding compounds to interact with Ang2 was measured by competition with Tie-2. These tests were described in US2008166364 (and also in PCT/IE2007/000110), whose contents are herein incorporated by reference in their entirety. In particular, those portions of PCT/IE2007/000110 and US2008166364 detailing the advantages and disadvantages of various Ang2-binding peptides, and the advantages and disadvantages of covalently linking certain Ang2-binding peptides to catalytic antibodies (and those portions specifically relating to linking to h38C2), as well as the advantages and disadvantages of using specific residues of the respective Ang2-specific peptide as the linking residue (in this context, linking residue meaning the residue covalently linked to the linker (for example as used herein in Example 4)). For competitive ELISA, human angiopoietin-2 protein and Tie-2-Fc (R&D Systems) were reconstituted without carrier protein. Mouse anti-human Tie-2 (Pharmingen) was used as the primary antibody and goat anti-mouse-IgG 1-HRP (Pierce) was used as the secondary antibody. TMB substrate from Pierce was used.\nHigh-binding half-well plates were coated with Ang-2 (100 ng/well) in 50 W PBS and incubated at 4° C. overnight. […] Color development was monitored and stopped with 25 μl of 2 M H2SO4. OD450 nm with a correction wavelength of 540 nm was measured."}, "[3]": {"target": "T1, human angiopoietin-2 protein", "test": "Ang2 reverse competition ELISA (Tie-2-Fc coated)", "format": "binding", "details": "Table 5, column T; read-out: Ang-2 T IC50", "description": "Plates were washed three times with washing buffer (0.1% Tween 20, PBS, pH 7.4) and blocked with Superblock, 150 μl/well at RT for 1 hour. Plates were washed three times. […] Plates were washed 3 times, and 50 W of streptavidin HRP (1:200 dilution in Superblock) was added at RT for 20 minutes. […] OD450 nm with a correction wavelength of 540 nm was measured."}, "[4]": {"target": "T2, recombinant human VEGF165 (Homo sapiens, UniProt P15692)", "T2 sequence (P15692 27-191 isoform P15692-4)": "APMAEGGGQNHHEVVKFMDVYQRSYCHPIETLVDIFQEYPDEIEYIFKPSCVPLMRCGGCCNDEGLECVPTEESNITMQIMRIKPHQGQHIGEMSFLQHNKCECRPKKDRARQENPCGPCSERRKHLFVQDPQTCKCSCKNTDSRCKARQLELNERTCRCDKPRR", "test": "VEGF peptide binding assay (competition ELISA, VEGF165 binding to coated VEGFR2/Fc)", "method_in_brief": "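VEGFR2/Fc was coated, and peptides (0.128–10,000 nM, N-acetyl, C-amide) were preincubated with 25 ng/ml human VEGF165 and added for 1 h at RT. Bound VEGF was detected with biotinylated anti-VEGF, streptavidin-HRP and TMB at OD450. IC50 came from sigmoid dose-response fits of OD450 versus concentration.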"}, "[5]": {"details": "Table 5, screening half life (in parentheses), shorter test period"}},
  "note": "Where a SMILES comes first, the peptide text is derived from it. Bridges are numbered along the chain shown (N, C = ends). [ ]: non-standard residue; d: D form. The star is where a group is joined. Phe(4-COOH) = N[C@@H](Cc1ccc(C(=O)O)cc1)C(=O)O; X1 = O=C(COCC(=O)*)Nc1ccc(CCC(=O)N2CCC2=O)cc1; Nva = CCC[C@H](N)C(=O)O",
  "data": [
    {"molecule": "CCC[C@H](NC(=O)[C@@H](NC(=O)[C@H](CCCCNC(=O)COCC(=O)Nc1ccc(CCC(=O)N2CCC2=O)cc1)NC(=O)[C@H](CC(=O)O)NC(=O)[C@H](CC(C)C)NC(=O)[C@H](CCC(=O)O)NC(=O)[C@H](CC(=O)O)NC(=O)[C@H](CC(C)C)NC(=O)[C@@H]1CCCN1C(=O)[C@H](CCC(N)=O)NC(=O)[C@H](Cc1ccc(O)cc1)NC(=O)[C@H](CCCCNC(C)=O)NC(=O)[C@H](CCC(N)=O)NC(C)=O)[C@@H](C)O)C(=O)N[C@@H](Cc1ccc(O)cc1)C(=O)N[C@@H](CC(=O)O)C(=O)N[C@@H](CCC(N)=O)C(=O)N[C@@H](Cc1ccccc1)C(=O)N[C@@H](CCSC)C(=O)N[C@@H](CC(C)C)C(=O)N[C@@H](CCC(N)=O)C(=O)N[C@@H](CCC(N)=O)C(=O)NCC(N)=O", "note": "[Compound 4041] (Ac-QK(Ac)YQPLDELDK(X1)T[Nva]YDQFMLQQG-NH2)", "values": [
      {"measurement": "half-life", "setting": "[1]; [5]", "result": 36, "unit": "h"}
    ]},
    {"molecule": "Q(Kac)Y QPL DEL DK(4P)T LYD QFM LQQ G [Compound 4024]", "values": [
      {"measurement": "IC50", "setting": "[2]; Table 5, column P", "result": 0.0174, "unit": "µM"},
      {"measurement": "IC50", "setting": "[3]", "result": 0.207, "unit": "µM"},
      {"measurement": "T ½ hours", "setting": "[1]; Table 5, half-life (value not in parentheses)", "result": 104, "unit": "h"},
      {"measurement": "T ½ (Sc) hours, screening half life", "setting": "[1]; [5]", "result": "(27) hours"}
    ]},
    {"molecule": "CSCC[C@H](NC(=O)[C@H](Cc1ccccc1)NC(=O)[C@H](CCC(N)=O)NC(=O)[C@H](CC(=O)O)NC(=O)[C@H](Cc1ccc(O)cc1)NC(=O)[C@H](CC(C)C)NC(=O)[C@@H](NC(=O)[C@H](CCCCN)NC(=O)[C@H](CC(=O)O)NC(=O)[C@H](CC(C)C)NC(=O)[C@H](CCC(=O)O)NC(=O)[C@H](CC(=O)O)NC(=O)[C@H](CC(C)C)NC(=O)[C@@H]1CCCN1C(=O)[C@H](CCC(N)=O)NC(=O)[C@H](Cc1ccc(O)cc1)NC(=O)[C@H](CCCCN)NC(=O)[C@H](CCC(N)=O)NC(C)=O)[C@@H](C)O)C(=O)N[C@@H](CC(C)C)C(=O)N[C@@H](CCC(N)=O)C(=O)N[C@@H](CCC(N)=O)C(=O)NCC(N)=O", "note": "[Compound 4021]", "values": [
      {"measurement": "IC50", "setting": "[2]; Table 6, column P", "result": 0.0364, "unit": "µM"}
    ]},
    {"molecule": "CSCC[C@H](NC(=O)[C@H](Cc1ccccc1)NC(=O)[C@H](CCC(N)=O)NC(=O)[C@H](CC(=O)O)NC(=O)[C@H](Cc1ccc(O)cc1)NC(=O)[C@H](CCC(C)C)NC(=O)[C@@H](NC(=O)[C@H](CCCCNC(=O)COCC(=O)Nc1ccc(CCC(=O)N2CCC2=O)cc1)NC(=O)[C@H](CC(=O)O)NC(=O)[C@H](CC(C)C)NC(=O)[C@H](CCC(=O)O)NC(=O)[C@H](CC(=O)O)NC(=O)[C@H](CC(C)C)NC(=O)[C@@H]1CCCN1C(=O)[C@H](CCC(N)=O)NC(=O)[C@H](Cc1ccc(O)cc1)NC(=O)[C@H](CCCCNC(C)=O)NC(=O)[C@H](CCC(N)=O)NC(C)=O)[C@@H](C)O)C(=O)N[C@@H](CC(C)C)C(=O)N[C@@H](CCC(N)=O)C(=O)N[C@@H](CCC(N)=O)C(=O)NCC(N)=O", "note": "[Compound 4042]", "values": [
      {"measurement": "half-life", "setting": "[1]; [5]", "result": 42, "unit": "h"}
    ]},
    {"molecule": "CSCC[C@H](NC(=O)[C@H](Cc1ccccc1)NC(=O)[C@H](CCC(N)=O)NC(=O)[C@H](CC(=O)O)NC(=O)[C@H](Cc1ccc(O)cc1)NC(=O)[C@H](CC(C)C)NC(=O)[C@@H](NC(=O)[C@H](CCCCNC(=O)COCC(=O)Nc1ccc(CCC(=O)N2CCC2=O)cc1)NC(=O)[C@H](CC(=O)O)NC(=O)[C@H](CC(C)C)NC(=O)[C@H](CCC(=O)O)NC(=O)[C@H](CC(=O)O)NC(=O)[C@H](CC(C)C)NC(=O)[C@@H]1CCCN1C(=O)[C@H](CCC(N)=O)NC(=O)[C@H](Cc1ccc(O)cc1)NC(=O)[C@H](CCCCNC(C)=O)NC(=O)[C@H](CCC(N)=O)NC(=O)CCOCCOCCNC(C)=O)[C@@H](C)O)C(=O)N[C@@H](CC(C)C)C(=O)N[C@@H](CCC(N)=O)C(=O)N[C@@H](CCC(N)=O)C(=O)NCC(N)=O", "note": "[Compound 4052, (Amido 2-PEG)QKacY QPL DEL DK(0P)T LYD QFMLQQ G]", "values": [
      {"measurement": "half-life", "setting": "[1]; [5]", "result": 31, "unit": "h"}
    ]},
    {"molecule": "CSCC[C@H](NC(=O)[C@H](Cc1ccccc1)NC(=O)[C@H](CCC(N)=O)NC(=O)[C@H](CC(=O)O)NC(=O)[C@H](Cc1ccc(C(=O)O)cc1)NC(=O)[C@H](CC(C)C)NC(=O)[C@@H](NC(=O)[C@H](CCCCNC(=O)COCC(=O)Nc1ccc(CCC(=O)N2CCC2=O)cc1)NC(=O)[C@H](CC(=O)O)NC(=O)[C@H](CC(C)C)NC(=O)[C@H](CCC(=O)O)NC(=O)[C@H](CC(=O)O)NC(=O)[C@H](CC(C)C)NC(=O)[C@@H]1CCCN1C(=O)[C@H](CCC(N)=O)NC(=O)[C@H](Cc1ccc(O)cc1)NC(=O)[C@H](CC(N)=O)NC(=O)[C@H](CCC(N)=O)NC(C)=O)[C@@H](C)O)C(=O)N[C@@H](CC(C)C)C(=O)N[C@@H](CCC(N)=O)C(=O)N[C@@H](CCC(N)=O)C(=O)NCC(N)=O", "note": "[Compound 4057] (Ac-QNYQPLDELDK(X1)TL[Phe(4-COOH)]DQFMLQQG-NH2)", "values": [
      {"measurement": "half-life", "setting": "[1]; [5]", "result": 11, "unit": "h"}
    ]},
    {"molecule": "CC[C@H](C)[C@H](NC(=O)CNC(=O)[C@H](Cc1ccc(O)cc1)NC(=O)[C@H](CC(C)C)NC(=O)[C@H](CCCNC(=N)N)NC(=O)[C@H](CCC(=O)O)NC(=O)[C@H](Cc1ccccc1)NC(=O)[C@@H]1CSSC[C@H](NC(=O)[C@H](CC(N)=O)NC(=O)[C@@H]2CCCN2C(=O)[C@H](CCC(=O)O)NC(=O)[C@@H](NC(C)=O)C(C)C)C(=O)N[C@@H](CC(=O)O)C(=O)N[C@@H]([C@@H](C)CC)C(=O)N[C@@H](Cc2c[nH]cn2)C(=O)N[C@@H](C(C)C)C(=O)N[C@@H](CCSC)C(=O)N[C@@H](Cc2c[nH]c3ccccc23)C(=O)N[C@@H](C(C)C)C(=O)N[C@@H](Cc2c[nH]c3ccccc23)C(=O)N[C@@H](CCC(=O)O)C(=O)N1)C(=O)N[C@@H](Cc1ccccc1)C(N)=O", "note": "[Compound 40, VEPNCDIHVMWVWECFERLYGIF] (Ac-VEPNCDIHVMWVWECFERLYGIF-NH2; disulfide 5-15 (inferred))", "values": [
      {"measurement": "IC50", "setting": "[4]", "result": 0.0783, "unit": "µM"}
    ]}
  ]
}
